Experimental data taken from the nanobody polyreactivity screen of Harvey et al. (2022).

Assay: yeast display, Sf9 membrane polyspecificity reagent, FACS + sequencing; frameworks hold sequencing errors
Outline: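 Synthetic nanobody libraries on Saccharomyces cerevisiae BJ5465 were galactose-induced for 36–48 hours, stained 1 hour at 4 °C with 10% biotinylated, detergent-solubilized Sf9 membrane reagent and enriched on streptavidin microbeads. FACS then separated cells into low and high (top ~1%) gates by anti-HA (expression) and streptavidin (reagent binding) fluorescence. Genes were colony-PCR amplified, MiSeq 2 × 250 sequenced and CDR-length filtered. A clone's polyreactivity label is that of its gate of origin.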

QVQLVESGGGLVQAGGSLRLSCAASGRIFSLNAMGWYRQAPGKERELVAGIRKRGGSTYYADSVKGRFTISRDNAKNTVYLQMNSLKPEDTAVYYCAADRFAFYGRYRGPYYYWGHGTQVTVSS
polyreactivity (PSR sort gate): high polyreactivity

QVQHVESGGGLVQAGGSLRLSCAASGGIFPTYVMGWYRQAPGKERELVAAIDRNGTSTTYADSVMGRFTISRDNAKNTVYLQMNSLKPEDTAVYYCAAGYNDQTTAYDYWGQGTQVTVSS
polyreactivity (PSR sort gate): low polyreactivity

QVQLVESGGGLVQAGGSLRLSCAASGSIFIYNAMGWYRQAPGKERELVAAISSSGGSTYYADSVKGRFTISRDNAKNTVYLQMNSLKPEDTAVYYCAARTYYVRGLGGRTGMDYWGQGTQVTVSS
polyreactivity (PSR sort gate): low polyreactivity

QVQLVESGGGLVQAGGSLRLICAASGSIQDWNAMGWYRQAPGKERELVAAITNGVSTHYADSVKGRFTISRDNAKNTVYLQMNSLKPEDTAVYYCAKAFWWRPEWWLRSARGSWGLGTQVTVSS
polyreactivity (PSR sort gate): low polyreactivity

QVQLVESGAGLVQAPGSLRLSCAASGRTFPRNAMGRYRQAPGKERDLVATISLSGGSTYYADSVKGRFTISRDNAKNTVYLQMNSLKPEDSADYYCARTRNPWPTSFDYWGQGTQVTVSS
polyreactivity (PSR sort gate): low polyreactivity

QVQLVESGGGLVQAGGSLRISCAASGSIFPTYAMGWYRQAPGKERELVAAISGSGGSTYYADSVKGRFTISRDNAKNTVYFQINSLKPEDTAVYYCAVRRRRYHTYYRGYDNWGQGTQVTVSA
polyreactivity (PSR sort gate): low polyreactivity

QVQVVESGGGLVQAGGSLRLSCAASGSIFYDYAMGWYRQAPGKERELVAAISWSGGRTYYADSVKGRFTISRDYAKNTVYLQMNSLKPEDTAVYYCAATTGVRSRRYYYWGQGTQVSVSS
polyreactivity (PSR sort gate): low polyreactivity

QVHLVESGGGLVQAGGSLRLSCAASGRTFVQYAMGWSRQAPGTERELVAVISNGGTTYYADSVKGRFTISRDNAKNTVYLQMNSLKPEDTAVYYCAAKIITRRGGRYDYWGQGTQVTVSS
polyreactivity (PSR sort gate): high polyreactivity

QVQLVESGGGLVQAGGSLRLSCAASGSIFYLYAMGWYRQAPGKERELVATITASGGSTNYADSVKGRFTISRDNAKNTVYLQMNSLKPEDTAVYYCAAEYYYLVYYYKEIVAYDYWGQGTQVTVSS
polyreactivity (PSR sort gate): high polyreactivity

QVQLVESGGGLVQAGGSLRLSCASSGTFFGYAMGWYRQAPGKERELVAAITSGGSTYYADSVKGRFTISRDNAKNTVYLQMNSLKPEDTAGYYCARVYSRWSYRYDYWGQGTQVTVST
polyreactivity (PSR sort gate): low polyreactivity

QVQLVESGGGLVQAGGSLRLSCPASGRIFQLYAMGWYRQAPGKERELVAAIRYSGDSTYYADSVKGRLTISRDNAKNTVYLQLNSLKPEDTAVYYCAARSRYGYRNKYEYWGQGTQVTVSS
polyreactivity (PSR sort gate): high polyreactivity

QVQLVESGGGLVQAGGSLRLSCAASGFTLLTYVMGWYRQAPGKERELVAAISKSGSRTYYADSVKGRFTISRDNAKNTVYVQMNSLKPEDTPVYYCAADTSAYRYDYWGQGTQVTVSS
polyreactivity (PSR sort gate): high polyreactivity

QVQLVESGGGLVQAGGSLRLSCAASGLTFPRYAMGWYRQAPGIERELVAAISYRGSRTYYADSVKGRFTISRDNAKNTVYLQMNSLKPEDSAVYYCNKVRPGYGVTYLVGYWGQGTQVTVSS
polyreactivity (PSR sort gate): high polyreactivity

QVQLVESGRGLVQAGGSLRLSCAASGSTISFYAMGWYRQAPGKERELVAAISFRGGRTYYADSVKGRFTISRDNAKNTVYLQMNSLKPEDTAVYYCNAERYYRYWDKQEDYWGQGTHVTVSS
polyreactivity (PSR sort gate): high polyreactivity

QVQLVESGGGLVQAGGSLRLSCAASGSIFRDYVMGWYRQAPGKERELVAAISGNDGSTYYADSVKGRFTISRDNAKNTVYLQLNSLKPEDTAVYYCNADEASTFPQFYSYLDFDYWGQGTQVTVSS
polyreactivity (PSR sort gate): low polyreactivity

QVQLVESGGGLVQAGGSLRLSCAASGFIFSGYAMGWYRQAPGKERELVAAISTRGGRTYYADSVKGRFTISRDNAKNTVYLQMNSLKPEDTAVYYCAADSLYPELDYWGQGTQVTVSS
polyreactivity (PSR sort gate): high polyreactivity

QVQLVESGGGLVQAGGSLRLSCDASGRIFVYYAMGWYRQAPGKERELVAAINSGGTTKYADSVKGRFTISRDNAKNTVYLQMNSLKPEDTAVYYCAAEPLTPSRDRVPYEYYYWGQGTQVTVSS
polyreactivity (PSR sort gate): high polyreactivity
